Measured values reported in patent publication US20200264176A1 (MIT, published 2020).

Columns and labels:
EDIII-DV3 [1] = molecular target: T1, EDIII-DV3 (Dengue virus serotype 3, UniProt Q6YMS3 579-671); test: SPR
T1 construct: also called EDIII of DV3; envelope glycoprotein domain III of Dengue virus serotype 3

EDIII-DV1 [2] = molecular target: T2, EDIII-DV1 (Dengue virus serotype 1, UniProt P17763 581-673); test: SPR
T2 construct: also called EDIII of DV1; envelope glycoprotein domain III of Dengue virus serotype 1

[3] = molecular target: T3, Dengue virus serotype 2 (DV2), envelope (E) glycoprotein on virus (Dengue virus serotype 2); test: cell-based or functional assay
[4] = molecular target: T4, Dengue virus serotype 1 (DV1), envelope (E) glycoprotein on virus (Dengue virus serotype 1); test: cell-based or functional assay
[5] = molecular target: T5, Dengue virus serotype 3 (DV3), envelope (E) glycoprotein on virus (Dengue virus serotype 3); test: cell-based or functional assay
EDIII-DV3 [6] = molecular target: T1, EDIII-DV3; test: SPR; remark: listed apart in the source
EDIII-DV1 [7] = molecular target: T2, EDIII-DV1; test: SPR; remark: listed apart in the source
EDIII-DV2 [8] = molecular target: T6, EDIII-DV2 (Dengue virus serotype 2, UniProt P14337 581-673); test: SPR
T6 construct: also called EDIII of DV2; envelope glycoprotein domain III of Dengue virus serotype 2

EDIII-DV3 [9] = molecular target: T1, EDIII-DV3; test: competition ELISA
EDIII-DV1 [10] = molecular target: T2, EDIII-DV1; test: competition ELISA
EDIII-DV2 [11] = molecular target: T6, EDIII-DV2; test: competition ELISA
EDIII-DV3 [12] = molecular target: T1, EDIII-DV3; test: competition ELISA, equilibrium in solution
EDIII-DV1 [13] = molecular target: T2, EDIII-DV1; test: competition ELISA, equilibrium in solution
EDIII-DV2 [14] = molecular target: T6, EDIII-DV2; test: competition ELISA, equilibrium in solution
EDIII-DV4 [15] = molecular target: T7, EDIII-DV4 (Dengue virus serotype 4, UniProt P09866 580-672); test: calculated from KD, ΔG = RTln(KD) at 25° C
EDIII-DV2 [16] = molecular target: T6, EDIII-DV2; test: indirect ELISA, coated recombinant EDIII
EDIII-DV4 [17] = molecular target: T7, EDIII-DV4; test: competition ELISA, equilibrium in solution
EDIII-DV3 [18] = molecular target: T1, EDIII-DV3; test: indirect ELISA, coated recombinant EDIII
EDIII-DV1 [19] = molecular target: T2, EDIII-DV1; test: indirect ELISA, coated recombinant EDIII
EDIII-DV4 [20] = molecular target: T7, EDIII-DV4; test: indirect ELISA, coated recombinant EDIII
EDIII-DV2 [21] = molecular target: T6, EDIII-DV2; test: SPR; remark: listed apart in the source
[22] = molecular target: T3, Dengue virus serotype 2 (DV2), envelope …; test: cell-based or functional assay; remark: listed apart in the source
[23] = molecular target: T4, Dengue virus serotype 1 (DV1), envelope …; test: cell-based or functional assay; remark: listed apart in the source
[24] = molecular target: Dengue virus serotype 4 (DV4), envelope (E) glycoprotein on virus (Dengue virus serotype 4); test: cell-based or functional assay
[25] = molecular target: T5, Dengue virus serotype 3 (DV3), envelope …; test: cell-based or functional assay; remark: listed apart in the source

B1: 4E11 WT (antibody, V domains shown)
VH: VKLLEQSGAELVKPGASVRLSCTASGFNIKDTYMSWVKQRPEQGLEWIGRIDPANGDTKYDPKFQGKATITADTSSNTAYLHLSSLTSGDTAVYYCSRGWEGFAYWGQGTLVTVSA
VL: ELVMTQTPASLAVSLGQRATISCRASENVDRYGNSFMHWYQQKAGQPPKLLIYRASNLESGIPARFSGSGSRTDFTLTINPVEADDVATYFCQRSNEVPWTFGGGTKLEIKR
notes: also called wt 4E11; WT 4E11
B1 was tested, and the Kd (EDIII-DV3 [1]) was 7.58 nM, the Kd (EDIII-DV1 [2]) was 0.5 nM and the “IC50 (read off the curve)” value [3] was about 0.03 µg/mL. For the same binder, the “IC50 (read off the curve)” value [4] was about 0.06 µg/mL, the “IC50 (read off the curve)” value [5] was about 0.5 µg/mL and the koff (EDIII-DV3 [6]) was 0.0102 s⁻¹. For the same binder, the kon (EDIII-DV3 [6]) was 1.34e+06 M⁻¹ s⁻¹, the koff (EDIII-DV1 [7]) was 0.000551 s⁻¹ and the kon (EDIII-DV1 [7]) was 1.11e+06 M⁻¹ s⁻¹. It also gave a koff (EDIII-DV2 [8]) of 0.0123 s⁻¹, a kon (EDIII-DV2 [8]) of 1.98e+06 M⁻¹ s⁻¹ and a Kd (EDIII-DV3 [9]) of 21.8 nM. For the same binder, the Kd (EDIII-DV1 [10]) was 0.328 nM, the Kd (EDIII-DV2 [11]) was 5.2 nM and the Kd (EDIII-DV3 [12]) was 21.8 nM. It also gave a Kd (EDIII-DV1 [13]) of 0.328 nM and a Kd (EDIII-DV2 [14]) of 5.2 nM.

B2: 4E11 VL-E59Q single mutant (antibody, V domains shown)
VH: VKLLEQSGAELVKPGASVRLSCTASGFNIKDTYMSWVKQRPEQGLEWIGRIDPANGDTKYDPKFQGKATITADTSSNTAYLHLSSLTSGDTAVYYCSRGWEGFAYWGQGTLVTVSA
VL: ELVMTQTPASLAVSLGQRATISCRASENVDRYGNSFMHWYQQKAGQPPKLLIYRASNLQSGIPARFSGSGSRTDFTLTINPVEADDVATYFCQRSNEVPWTFGGGTKLEIKR
With B2 the ΔG (EDIII-DV4 [15]) was -6.76 kcal/mol, the “ΔΔG (ΔGmutant - ΔGWT)” value (EDIII-DV4 [15]) was -0.77 kcal/mol and the binding result (EDIII-DV2 [16]) was “binds”. The Kd (EDIII-DV4 [17]) was 11000 nM.

B3: 4E11 VL Asn57Ser single mutant (antibody, V domains shown)
VH: VKLLEQSGAELVKPGASVRLSCTASGFNIKDTYMSWVKQRPEQGLEWIGRIDPANGDTKYDPKFQGKATITADTSSNTAYLHLSSLTSGDTAVYYCSRGWEGFAYWGQGTLVTVSA
VL: ELVMTQTPASLAVSLGQRATISCRASENVDRYGNSFMHWYQQKAGQPPKLLIYRASSLESGIPARFSGSGSRTDFTLTINPVEADDVATYFCQRSNEVPWTFGGGTKLEIKR
B3: binds (EDIII-DV3 [18]); binds (EDIII-DV1 [19]); binds (EDIII-DV2 [16]). B3: binds (EDIII-DV4 [20]).

B4: 4E11 VL-N57E single mutant (antibody, V domains shown)
VH: VKLLEQSGAELVKPGASVRLSCTASGFNIKDTYMSWVKQRPEQGLEWIGRIDPANGDTKYDPKFQGKATITADTSSNTAYLHLSSLTSGDTAVYYCSRGWEGFAYWGQGTLVTVSA
VL: ELVMTQTPASLAVSLGQRATISCRASENVDRYGNSFMHWYQQKAGQPPKLLIYRASELESGIPARFSGSGSRTDFTLTINPVEADDVATYFCQRSNEVPWTFGGGTKLEIKR
B4 was tested, and the ΔG (EDIII-DV4 [15]) was -6.92 kcal/mol, the “ΔΔG (ΔGmutant - ΔGWT)” value (EDIII-DV4 [15]) was -0.93 kcal/mol and the Kd (EDIII-DV4 [17]) was 8410 nM.

B5: 4E11 VL Ser60Arg single mutant (antibody, V domains shown)
VH: VKLLEQSGAELVKPGASVRLSCTASGFNIKDTYMSWVKQRPEQGLEWIGRIDPANGDTKYDPKFQGKATITADTSSNTAYLHLSSLTSGDTAVYYCSRGWEGFAYWGQGTLVTVSA
VL: ELVMTQTPASLAVSLGQRATISCRASENVDRYGNSFMHWYQQKAGQPPKLLIYRASNLERGIPARFSGSGSRTDFTLTINPVEADDVATYFCQRSNEVPWTFGGGTKLEIKR
notes: also called S60R
B5: binds (EDIII-DV3 [18]); binds (EDIII-DV1 [19]); binds (EDIII-DV2 [16]). B5: binds (EDIII-DV4 [20]).

B6: 4E11 VH-A55E single mutant (antibody, V domains shown)
VH: VKLLEQSGAELVKPGASVRLSCTASGFNIKDTYMSWVKQRPEQGLEWIGRIDPENGDTKYDPKFQGKATITADTSSNTAYLHLSSLTSGDTAVYYCSRGWEGFAYWGQGTLVTVSA
VL: ELVMTQTPASLAVSLGQRATISCRASENVDRYGNSFMHWYQQKAGQPPKLLIYRASNLESGIPARFSGSGSRTDFTLTINPVEADDVATYFCQRSNEVPWTFGGGTKLEIKR
For B6, the ΔG (EDIII-DV4 [15]) was -7.29 kcal/mol, the “ΔΔG (ΔGmutant - ΔGWT)” value (EDIII-DV4 [15]) was -1.31 kcal/mol and the Kd (EDIII-DV4 [17]) was 4440 nM.

B7: 4E5A (antibody, V domains shown)
VH: VKLLEQSGAELVKPGASVRLSCTASGFNIKDTYMSWVKQRPEQGLEWIGRIDPENGDTKYDPKFQGKATITADTSSNTAYLHLSSLTSGDTAVYYCSRGWEGFAYWGQGTLVTVSA
VL: ELVMTQTPASLAVSLGQRATISCRASENVDKYGNSFMHWYQQKAGQPPKLLIYRASELQWGIPARFSGSGSRTDFTLTINPVEADDVATYFCQRSNEVPWTFGGGTKLEIKR
notes: also called 4E11-5A; quintuple mutant antibody
B7 showed a Kd (EDIII-DV2 [21]) of 0.7 nM, an FRNT50 [22] of 0.028 µg/mL and an FRNT50 [23] of 0.19 µg/mL. It also gave an FRNT50 [24] of 4 µg/mL and an FRNT50 [25] of 0.77 µg/mL.

B8: 4E11 VH Ala55Asp single mutant (antibody, V domains shown)
VH: VKLLEQSGAELVKPGASVRLSCTASGFNIKDTYMSWVKQRPEQGLEWIGRIDPDNGDTKYDPKFQGKATITADTSSNTAYLHLSSLTSGDTAVYYCSRGWEGFAYWGQGTLVTVSA
VL: ELVMTQTPASLAVSLGQRATISCRASENVDRYGNSFMHWYQQKAGQPPKLLIYRASNLESGIPARFSGSGSRTDFTLTINPVEADDVATYFCQRSNEVPWTFGGGTKLEIKR
notes: also called A55D
B8: binds (EDIII-DV3 [18]); binds (EDIII-DV1 [19]); binds (EDIII-DV2 [16]). B8: binds (EDIII-DV4 [20]).

B9: 4E11 VL-R31K single mutant (antibody, V domains shown)
VH: VKLLEQSGAELVKPGASVRLSCTASGFNIKDTYMSWVKQRPEQGLEWIGRIDPANGDTKYDPKFQGKATITADTSSNTAYLHLSSLTSGDTAVYYCSRGWEGFAYWGQGTLVTVSA
VL: ELVMTQTPASLAVSLGQRATISCRASENVDKYGNSFMHWYQQKAGQPPKLLIYRASNLESGIPARFSGSGSRTDFTLTINPVEADDVATYFCQRSNEVPWTFGGGTKLEIKR
B9: binds (EDIII-DV2 [16]).

B10: 4E11 VL Ser60Tyr single mutant (antibody, V domains shown)
VH: VKLLEQSGAELVKPGASVRLSCTASGFNIKDTYMSWVKQRPEQGLEWIGRIDPANGDTKYDPKFQGKATITADTSSNTAYLHLSSLTSGDTAVYYCSRGWEGFAYWGQGTLVTVSA
VL: ELVMTQTPASLAVSLGQRATISCRASENVDRYGNSFMHWYQQKAGQPPKLLIYRASNLEYGIPARFSGSGSRTDFTLTINPVEADDVATYFCQRSNEVPWTFGGGTKLEIKR
notes: also called S60Y
B10: binds (EDIII-DV3 [18]); binds (EDIII-DV1 [19]); binds (EDIII-DV2 [16]). B10: binds (EDIII-DV4 [20]).

B11: 4E11 VL Glu59Asn single mutant (antibody, V domains shown)
VH: VKLLEQSGAELVKPGASVRLSCTASGFNIKDTYMSWVKQRPEQGLEWIGRIDPANGDTKYDPKFQGKATITADTSSNTAYLHLSSLTSGDTAVYYCSRGWEGFAYWGQGTLVTVSA
VL: ELVMTQTPASLAVSLGQRATISCRASENVDRYGNSFMHWYQQKAGQPPKLLIYRASNLNSGIPARFSGSGSRTDFTLTINPVEADDVATYFCQRSNEVPWTFGGGTKLEIKR
notes: also called E59N
B11: binds (EDIII-DV3 [18]); binds (EDIII-DV1 [19]); binds (EDIII-DV2 [16]). B11: binds (EDIII-DV4 [20]).

B12: 4E11 VL-S60W single mutant (antibody, V domains shown)
VH: VKLLEQSGAELVKPGASVRLSCTASGFNIKDTYMSWVKQRPEQGLEWIGRIDPANGDTKYDPKFQGKATITADTSSNTAYLHLSSLTSGDTAVYYCSRGWEGFAYWGQGTLVTVSA
VL: ELVMTQTPASLAVSLGQRATISCRASENVDRYGNSFMHWYQQKAGQPPKLLIYRASNLEWGIPARFSGSGSRTDFTLTINPVEADDVATYFCQRSNEVPWTFGGGTKLEIKR
B12: binds (EDIII-DV2 [16]).
